Response data for three variants are collected here from article PMC12203963.

B1: ALFA-tagged IRT1 (iron-regulated transporter 1), wildtype [Arabidopsis thaliana] / CIPK23 fused to the mCitC fragment [not stated] (parent)
chain 1: MASRTTPSRSTPSRSTPSGSSSGGRTRVGKYELGRTLGEGTFAKVKFARNVENGDNVAIKVIDKEKVLKNKMIAQIKREISTMKLIKHPNVIRMFEVMASKTKIYFVLEFVTGGELFDKISSNGRLKEDEARKYFQQLINAVDYCHSRGVYHRDLKPENLLLDANGALKVSDFGLSALPQQVREDGLLHTTCGTPNYVAPEVINNKGYDGAKADLWSCGVILFVLMAGYLPFEDSNLTSLYKKIFKAEFTCPPWFSASAKKLIKRILDPNPATRITFAEVIENEWFKKGYKAPKFENADVSLDDVDAIFDDSGESKNLVVERREEGLKTPVTMNAFELISTSQGLNLGSLFEKQMGLVKRKTRFTSKSSANEIVTKIEAAAAPMGFDVKTNNYKMKLTGEKSGRKGQLAVATEVFQVAPSLYMVEMRKSGGDTLEFHKFYKNLTTGLKDIVWKTIDEEKEEGTDGGGTNGAMANRTIAKQST
chain 2: ISPATSTAPEECGSESANPCVNKAKALPLKVIAIFVILIASMIGVGAPLFSRNVSFLQPDGNIFTIIKCFASGIILGTGFMHVLPDSFEMLSSICLEENPWHKFPFSGFLAMLSGLITLAIDSMATSLYTSKNAVGIMPHGHGHGHGPANDVTLPIKEDDSSNAQLLRYRVIAMVLELGIIVHSVVIGLSLGATSDTCTIKGLIAALCFHQMFEGMGLGGCILQAEYTNMKKFVMAFFFAVTTPFGIALGIALSTVYQDNSPKALITVGLLNACSAGLLIYMALVDLLAAEFMGPKLQGSIKMQFKCLIAALLGCGGMSIIAKWA

Variants of B1 are the subject of this test. Nature of the test: trimolecular fluorescence complementation (TriFC). Conditions: with CIPK23 fused to the mCitC fragment; parent: 74; read off a plot.
As to chain 2 ISPATSTAPEECGSESANPCVNKAKALPLKVIAIFVILIASMIGVGAPLFSRNVSFLQPDGNIFTIIKCFASGIILGTGFMHVLPDSFEMLSSICLEENPWHKFPFSGFLAMLSGLITLAIDSMATSLYTSKNAVGIMPAGAGHGHGPANDVTLPIKEDDSSNAQLLRYRVIAMVLELGIIVHSVVIGLSLGATSDTCTIKGLIAALCFHQMFEGMGLGGCILQAEYTNMKKFVMAFFFAVTTPFGIALGIALSTVYQDNSPKALITVGLLNACSAGLLIYMALVDLLAAEFMGPKLQGSIKMQFKCLIAALLGCGGMSIIAKWA [chain 2 H140A H142A], the response was 46. As for chain 2 ISPATSTAPEECGSESANPCVNKAKALPLKVIAIFVILIASMIGVGAPLFSRNVSFLQPDGNIFTIIKCFASGIILGTGFMHVLPDSFEMLSSICLEENPWHKFPFSGFLAMLSGLITLAIDSMATSLYTSKNAVGIMPAGAGHGHGPANQVTLPIKEDDSSNAQLLRYRVIAMVLELGIIVHSVVIGLSLGATSDTCTIKGLIAALCFHQMFEGMGLGGCILQAEYTNMKKFVMAFFFAVTTPFGIALGIALSTVYQDNSPKALITVGLLNACSAGLLIYMALVDLLAAEFMGPKLQGSIKMQFKCLIAALLGCGGMSIIAKWA [chain 2 H140A H142A D151Q], the figure is 23; as for chain 2 ISPATSTAPEECGSESANPCVNKAKALPLKVIAIFVILIASMIGVGAPLFSRNVSFLQPDGNIFTIIKCFASGIILGTGFMHVLPDSFEMLSSICLEENPWHKFPFSGFLAMLSGLITLAIDSMATSLYTSKNAVGIMPHGHGHGHGPANQVTLPIKEDDSSNAQLLRYRVIAMVLELGIIVHSVVIGLSLGATSDTCTIKGLIAALCFHQMFEGMGLGGCILQAEYTNMKKFVMAFFFAVTTPFGIALGIALSTVYQDNSPKALITVGLLNACSAGLLIYMALVDLLAAEFMGPKLQGSIKMQFKCLIAALLGCGGMSIIAKWA [chain 2 D151Q], 67.
